Experimental data reported in patent US20110028686A1 (published 2011).

How the values were obtained:
Assay in all cases: fluorescence polarization
pP53-02 = molecular target: pP53-02
pP53-01 = molecular target: pP53-01
pP53-04 = molecular target: pP53-04
pP53-03 = molecular target: pP53-03

B1: GST-MDM2 (other)
chain: MCNTNMSVPTDGAVTTSQIPASEQETLVRPKPLLLKLLKSVGAQKDTYTMKEVLFYLGQYIMTKRLYDEKQQHIVYCSNDLLGDLFGVPSFSVKEHRKIYTMIYRNLVVVNQQESSDSGTSVSENRCHLEGGSDQKDLVQELQEEKPSSSHLVSRPSTSSRRRAISETEENSDELSGERQRKRHKSDS
Kd (pP53-02): 766 nM | Kd (pP53-01): 2800 nM | Kd (pP53-04): 334 nM | Kd (pP53-03): 546 nM
